For orientation: Kd means the equilibrium constant for the complex coming apart.

The text below walks through data of patent US20080076717A1.

The assay concerns the target SPR-8: ASARM-PO4 biotin. Briefly: SPR (Biacore 3000): biotinylated ASARM-PO4 captured on neutravidin, PHEX as analyte. On the technique in general: SPR reads the build-up and loss of mass on a sensor chip optically.

In turn, “PHEX (free soluble-PHEX analyte) (from UniProt P78562 46-749) (enzyme)” yielded a Kd of 168 nM.
